Results published in doi:10.1101/2020.12.07.415216.

How the values were obtained:
[1] = biological target: SARS-CoV RBD homotrimer (RBD appended onto a cystine-stabilized, hyperglycosylated GCN4 trimerization tag) (SARS-CoV) (UniProt P59594); experiment: SDS-PAGE under non-reducing conditions
[2] = biological target: WIV1-CoV RBD homotrimer (RBD appended onto a cystine-stabilized, hyperglycosylated GCN4 trimerization tag) (WIV1-CoV); experiment: SDS-PAGE under non-reducing conditions

Substance | stoichiometry N [1] | stoichiometry N [2]
SARS-CoV RBD homotrimer (RBD appended onto a cystine-stabilized, hyperglycosylated GCN4 trimerization tag) (from UniProt P59594) | 3 | –
WIV1-CoV RBD homotrimer (RBD appended onto a cystine-stabilized, hyperglycosylated GCN4 trimerization tag) | – | 3
